Molecular target: T1, Hydra Myc3 bHLH-LZ (p13);Hydra Max bHLH-LZ (p13) (Hydra (strain  in the text …, UniProt A0A0H5FMB4;D0EM50 108-197;29-120, |))
T1 sequence 1: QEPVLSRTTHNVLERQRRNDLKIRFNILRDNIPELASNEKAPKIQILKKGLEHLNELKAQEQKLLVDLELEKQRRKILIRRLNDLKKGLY
T1 sequence 2: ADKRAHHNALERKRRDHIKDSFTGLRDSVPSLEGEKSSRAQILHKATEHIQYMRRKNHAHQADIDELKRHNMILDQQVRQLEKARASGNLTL
Experiment: EMSA; 0-2000 nM protein; EMSA: 10 mM Tris-HCl pH 7.5, 0.5 mM EDTA, 65 mM KCl, 5 mM MgCl2, 1 mM DTT, 100 ug/mL BSA, 10% glycerol, 25 C, 45 min; native 6% PAGE
Conditions: protein: recombinant;recombinant, tags: N-terminal initiator Met, C-terminal His6;N-terminal initiator Met, copies: 1;1, label: 32P, blunt

B1: myc2 promoter E-box 18-mer (dsDNA)
DNA 1: ATAGCTCACGTGTCAATA
DNA 2: TATTGACACGTGAGCTAT
In the case of B1, the Kd is reported as 16.3 nM.

Source: article PMC10177328, “High Intrinsic Oncogenic Potential in the Myc-Box-Deficient Hydra Myc3 Protein”
